Laboratory results published in article PMC11401910 (2024).

How the values were obtained:
SurA-core = SurA-core (E. coli, UniProt P0ABZ6 21-428, deleting codons for residues 172–389); assay: MST; apparent Kd, Hill fit, 0.8 M urea
SurA-WT [1] = biological target: T1, SurA-WT (E. coli, UniProt P0ABZ6 21-428); assay: MST; apparent Kd, Hill fit, 0.8 M urea
T1 chain: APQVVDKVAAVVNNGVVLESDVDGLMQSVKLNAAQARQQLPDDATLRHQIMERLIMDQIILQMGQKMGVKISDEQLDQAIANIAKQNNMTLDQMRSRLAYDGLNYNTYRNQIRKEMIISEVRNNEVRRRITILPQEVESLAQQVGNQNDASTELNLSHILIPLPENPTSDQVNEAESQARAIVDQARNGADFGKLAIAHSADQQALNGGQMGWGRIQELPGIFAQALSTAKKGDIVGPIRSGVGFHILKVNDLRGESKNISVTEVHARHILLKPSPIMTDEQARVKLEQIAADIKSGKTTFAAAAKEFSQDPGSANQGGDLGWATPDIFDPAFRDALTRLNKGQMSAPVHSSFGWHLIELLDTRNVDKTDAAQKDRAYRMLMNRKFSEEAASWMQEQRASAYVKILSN

OmpF = biological target: T2, OmpF (Escherichia coli, UniProt P02931)
T2 chain: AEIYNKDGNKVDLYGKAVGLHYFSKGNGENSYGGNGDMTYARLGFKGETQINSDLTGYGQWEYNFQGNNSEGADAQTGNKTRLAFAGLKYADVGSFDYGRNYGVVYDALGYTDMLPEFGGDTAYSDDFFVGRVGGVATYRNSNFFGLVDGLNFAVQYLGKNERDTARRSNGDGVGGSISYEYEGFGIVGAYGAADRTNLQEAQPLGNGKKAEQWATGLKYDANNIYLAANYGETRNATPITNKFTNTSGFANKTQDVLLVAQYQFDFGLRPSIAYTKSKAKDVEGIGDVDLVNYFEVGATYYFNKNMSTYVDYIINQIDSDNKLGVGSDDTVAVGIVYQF

[2] = biological target: T3, tOmpA transmembrane domain (Escherichia coli, UniProt P0A910)
T3 chain: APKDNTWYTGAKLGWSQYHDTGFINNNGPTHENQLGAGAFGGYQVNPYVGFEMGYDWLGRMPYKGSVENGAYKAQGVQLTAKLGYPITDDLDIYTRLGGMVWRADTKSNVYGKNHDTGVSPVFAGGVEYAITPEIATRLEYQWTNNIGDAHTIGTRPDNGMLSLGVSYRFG

SurA-WT [3] = biological target: T1, SurA-WT; assay: ITC

B1: Cys-OmpX labelled with Alexa Fluor 488 (natural protein)
chain: MGSCATSTVTGGYAQSDAQGQMNKMGGFNLKYRYEEDNSPLGVIGSFTYTEKSRTASSGDYNKNQYYGITAGPAYRINDWASIYGVVGVGYGKFQTTEYPTYKHDTSDYGFSYGAGLQFNPMENVALDFSYEQSRIRSVDVGTWIAGVGYRF
modifications: Alexa Fluor 488 on the N-terminal Cys
Kd (SurA-core): 5.1 µM | Kd (SurA-WT [1]): 1.3 µM

B2: SurA (protein)
chain: T1 chain
Ki (OmpF): 5.2 µM | Kd [2]: 3.7 µM

B3: WEYIPNV peptide (peptide)
peptide: WEYIPNV
Kd (SurA-WT [3]): 5.4 µM
